B1: Transcriptional regulator ERG, residues 117 to 197; numbered along this chain, P11308 (parent)
chain: NMTTNERRVIVPADPTLWSTDHVRQWLEWAVKEYGLPDVNILLFQNIDGKELCKMTKDDFQRLTPSYNADILLSHLHYLRE

Results on 34 variants are retold here after the Human Domainome abundance scans (Beltran et al. 2025).

± gives the uncertainty stated by the source.

Variants of B1 are the subject of this series. Briefly: abundance fitness (aPCA) (normalised: wild type 0, dead -1); higher = more abundant; growth selection in yeast, the domain comes from the species named. Conditions: Homo sapiens.
For the variant NMTTNERRVIVPADPTLWSTDHVRPWLEWAVKEYGLPDVNILLFQNIDGKELCKMTKDDFQRLTPSYNADILLSHLHYLRE [Q25P], the abundance fitness was -1 ± 0.2.

As to NMTTNERRVIVPADPTLWSTDHVRAWLEWAVKEYGLPDVNILLFQNIDGKELCKMTKDDFQRLTPSYNADILLSHLHYLRE [Q25A], the abundance fitness was 0.03 ± 0.037.

For the variant NMTTNERRVIVPADPTLWSTDHVRGWLEWAVKEYGLPDVNILLFQNIDGKELCKMTKDDFQRLTPSYNADILLSHLHYLRE [Q25G], the abundance fitness is -0.095 ± 0.034.

Regarding NMTTNERRVIVPADPTLWSTDHVREWLEWAVKEYGLPDVNILLFQNIDGKELCKMTKDDFQRLTPSYNADILLSHLHYLRE [Q25E], the abundance fitness stood at 0.022 ± 0.045.

As for NMTTNERRVIVPADPTLWSTDHVRMWLEWAVKEYGLPDVNILLFQNIDGKELCKMTKDDFQRLTPSYNADILLSHLHYLRE [Q25M], the abundance fitness is 0.022 ± 0.059.

On to NMTTNERRVIVPADPTLWSTDHVRFWLEWAVKEYGLPDVNILLFQNIDGKELCKMTKDDFQRLTPSYNADILLSHLHYLRE [Q25F], for which the abundance fitness is -0.072 ± 0.08.

With NMTTNERRVIVPADPTLWSTDHVRKWLEWAVKEYGLPDVNILLFQNIDGKELCKMTKDDFQRLTPSYNADILLSHLHYLRE [Q25K], the abundance fitness was -0.015 ± 0.052.

For the variant NMTTNERRVIVPADPTLWSTDHVRDWLEWAVKEYGLPDVNILLFQNIDGKELCKMTKDDFQRLTPSYNADILLSHLHYLRE [Q25D], the abundance fitness was -0.061 ± 0.066.

As for NMTTNERRVIVPADPTLWSTDHVRLWLEWAVKEYGLPDVNILLFQNIDGKELCKMTKDDFQRLTPSYNADILLSHLHYLRE [Q25L], the abundance fitness is 0.064 ± 0.042.

Consider NMTTNERRVIVPADPTLWSTDHVRIWLEWAVKEYGLPDVNILLFQNIDGKELCKMTKDDFQRLTPSYNADILLSHLHYLRE [Q25I], for which the abundance fitness was -0.001 ± 0.082.

As to NMTTNERRVIVPADPTLWSTDHVRVWLEWAVKEYGLPDVNILLFQNIDGKELCKMTKDDFQRLTPSYNADILLSHLHYLRE [Q25V], the abundance fitness worked out at 0.01 ± 0.037.

Consider NMTTNERRVIVPADPTLWSTDHVHQWLEWAVKEYGLPDVNILLFQNIDGKELCKMTKDDFQRLTPSYNADILLSHLHYLRE [R24H], for which the abundance fitness is -0.182 ± 0.11.

On to NMTTNERRVIVPADPTLWSTDHVEQWLEWAVKEYGLPDVNILLFQNIDGKELCKMTKDDFQRLTPSYNADILLSHLHYLRE [R24E], for which the abundance fitness was -0.211 ± 0.053.

In the case of NMTTNERRVIVPADPTLWSTDHVIQWLEWAVKEYGLPDVNILLFQNIDGKELCKMTKDDFQRLTPSYNADILLSHLHYLRE [R24I], the abundance fitness is -0.162 ± 0.1.

On to NMTTNERRVIVPADPTLWSTDHVNQWLEWAVKEYGLPDVNILLFQNIDGKELCKMTKDDFQRLTPSYNADILLSHLHYLRE [R24N], for which the abundance fitness is -0.105 ± 0.13.

NMTTNERRVIVPADPTLWSTDHVPQWLEWAVKEYGLPDVNILLFQNIDGKELCKMTKDDFQRLTPSYNADILLSHLHYLRE [R24P]: the abundance fitness was -0.988 ± 0.18.

Take NMTTNERRVIVPADPTLWSTDHVWQWLEWAVKEYGLPDVNILLFQNIDGKELCKMTKDDFQRLTPSYNADILLSHLHYLRE [R24W]: the abundance fitness is -0.522 ± 0.076.

Take NMTTNERRVIVPADPTLWSTDHVGQWLEWAVKEYGLPDVNILLFQNIDGKELCKMTKDDFQRLTPSYNADILLSHLHYLRE [R24G]: the abundance fitness was -0.088 ± 0.037.

For NMTTNERRVIVPADPTLWSTDHVQQWLEWAVKEYGLPDVNILLFQNIDGKELCKMTKDDFQRLTPSYNADILLSHLHYLRE [R24Q], the abundance fitness was 0.077 ± 0.059.

Consider NMTTNERRVIVPADPTLWSTDHVDQWLEWAVKEYGLPDVNILLFQNIDGKELCKMTKDDFQRLTPSYNADILLSHLHYLRE [R24D], for which the abundance fitness was -0.908 ± 0.24.

Take NMTTNERRVIVPADPTLWSTDHVTQWLEWAVKEYGLPDVNILLFQNIDGKELCKMTKDDFQRLTPSYNADILLSHLHYLRE [R24T]: the abundance fitness was determined as 0.069 ± 0.055.

Take NMTTNERRVIVPADPTLWSTDHVSQWLEWAVKEYGLPDVNILLFQNIDGKELCKMTKDDFQRLTPSYNADILLSHLHYLRE [R24S]: the abundance fitness was -0.02 ± 0.046.

With NMTTNERRVIVPADPTLWSTDHVCQWLEWAVKEYGLPDVNILLFQNIDGKELCKMTKDDFQRLTPSYNADILLSHLHYLRE [R24C], the abundance fitness was -0.058 ± 0.071.

In the case of NMTTNERRVIVPADPTLWSTDHVKQWLEWAVKEYGLPDVNILLFQNIDGKELCKMTKDDFQRLTPSYNADILLSHLHYLRE [R24K], the abundance fitness was determined as 0 ± 0.056.

With NMTTNERRVIVPADPTLWSTDHVLQWLEWAVKEYGLPDVNILLFQNIDGKELCKMTKDDFQRLTPSYNADILLSHLHYLRE [R24L], the abundance fitness is -0.017 ± 0.044.

In the case of NMTTNERRVIVPADPTLWSTDHVYQWLEWAVKEYGLPDVNILLFQNIDGKELCKMTKDDFQRLTPSYNADILLSHLHYLRE [R24Y], the abundance fitness is -0.209 ± 0.097.

NMTTNERRVIVPADPTLWSTDHVMQWLEWAVKEYGLPDVNILLFQNIDGKELCKMTKDDFQRLTPSYNADILLSHLHYLRE [R24M]: the abundance fitness is -0.023 ± 0.055.

NMTTNERRVIVPADPTLWSTDHVVQWLEWAVKEYGLPDVNILLFQNIDGKELCKMTKDDFQRLTPSYNADILLSHLHYLRE [R24V]: the abundance fitness was -0.015 ± 0.04.

Turning to NMTTNERRVIVPADPTLWSTDHVFQWLEWAVKEYGLPDVNILLFQNIDGKELCKMTKDDFQRLTPSYNADILLSHLHYLRE [R24F], the abundance fitness is -0.218 ± 0.14.

For NMTTNERRVIVPADPTLWSTDHVRQFLEWAVKEYGLPDVNILLFQNIDGKELCKMTKDDFQRLTPSYNADILLSHLHYLRE [W26F], the abundance fitness is -0.068 ± 0.08.

In the case of NMTTNERRVIVPADPTLWSTDHVRQALEWAVKEYGLPDVNILLFQNIDGKELCKMTKDDFQRLTPSYNADILLSHLHYLRE [W26A], the abundance fitness was -0.886 ± 0.11.

Consider NMTTNERRVIVPADPTLWSTDHVRQCLEWAVKEYGLPDVNILLFQNIDGKELCKMTKDDFQRLTPSYNADILLSHLHYLRE [W26C], for which the abundance fitness was -0.982 ± 0.21.

As for NMTTNERRVIVPADPTLWSTDHVRQELEWAVKEYGLPDVNILLFQNIDGKELCKMTKDDFQRLTPSYNADILLSHLHYLRE [W26E], the abundance fitness is -0.727 ± 0.1.

NMTTNERRVIVPADPTLWSTDHVRQGLEWAVKEYGLPDVNILLFQNIDGKELCKMTKDDFQRLTPSYNADILLSHLHYLRE [W26G]: the abundance fitness was -0.965 ± 0.075.
